Legend:
HeLa cells [1] = assay: Subcellular localization and mobility of mutated TFEB-3xFlag in HeLa cells; format: cell-based, human; details: for TFEB subcellular localization of serine-to-alanine mutants: HeLa cells, Flag immunostaining
Experimental: Cells were transiently transfected with DNA plasmids pRK5-mycPAT1, pCEP4-TFEB-his, pC1G2-TFEB, and p3 x FLAG-CMVTFEB using lipofectamine2000 or LTX (Invitrogen) according to the protocol from manufacturer. Site-direct mutagenesis was performed according to the manufacturer instructions (Stratagene) verifying the correct mutagenesis by sequencing.
Cells were seeded at 50% of confluence in 6 well dishes and serum starved overnight (ON). Normal medium was added the following day either in presence of DMSO or kinase inhibitors. Subcellular fractionation was carried out as previously reported. Briefly, cells were lysed in 0.5 Triton X-100 lysis buffer (50 mM Tris-HCl, 0.5% triton, 137.5 mM NaCl, 10% glycerol, 5 mM EDTA supplemented with fresh protease and phosphatase inhibitors. Supernatant represented cytosolic fraction while nuclear pellet was washed twice and lysed in 0.5 Triton X-100 buffer 0.5% SDS and sonicated.

TFEB target genes = assay: qPCR of TFEB target genes after transfection with normal and mutant TFEB plasmids; format: cell-based, human; details: 24 h post-transfection, compared to TFEB(WT), TFEB(S332A) and TFEB(S402A)
Source text: (§1) Asterisks in the graph indicate that the P-value was <0.05.

HeLa cells [2] = assay: Autophagosome number / LC3II level in HeLa cells; format: cell-based, human
Source text: Cells or tissues were solubilized in RIPA buffer supplemented with protease (ROCHE) and Phosphatase (SIGMA) inhibitors. From 10 to 30 micrograms were loaded on 4-12% Bis-Tris gel (NUPAGE, Invitrogen), transferred to PVDF membranes and analyzed by western blot using the ECL method (Pierce). The following antibodies were used: LC3 (Novus Biological), FLAG, b-ACTIN, TUBULIN (SIGMA), HA (Covance), H3, ERK1/2, p-ERK1/2, p-AKT, p-70S6K (Cell Signaling), ERK2 (Santa Cruz). Protein levels were quantified by using ImageJ software analysis.

[3] = system: mouse embryonic fibroblast (MEFs); assay: Electron microscopy of MEFs infected with lentivirus overexpressing TFEB; format: cell-based
Experimental: Control and TFEB-overexpressing cells were washed with PBS, and fixed in 1% glutaraldehyde dissolved in 0.2 M Hepes buffer (pH 7.4) for 30 min at room temperature. The cells were then postfixed for 2 h in OsO4. After dehydration in graded series of ethanol, the cells were embedded in Epon 812 (Fluka) and polymerized at 60° C. for 72 h. Thin sections were cut at the Leica EM UC6, counterstained with uranyl acetate and lead citrate. EM images were acquired from thin sections using a Philips Tecnai-12 electron microscope equipped with an ULTRA VIEW CCD digital camera (Philips, Eindhoven, The Netherlands). Quantification of vacuolization was performed using the AnalySIS software (Soft Imaging Systems GmbH, Munster, Germany). Selection of cells for quantification was based on their suitability for stereologic analysis, i.e. only cells sectioned through their central region (detected on the basis of the presence of Golgi membranes) were analyzed.

long-lived proteins = assay: Degradation of long-lived proteins; format: cell-based; details: TFEB overexpression
Experimental: Sub-confluent cells were incubated with L-U^14C-serine for 20 h and chased for 1 h with cold media to degrade short-lived proteins. Subsequently cells were incubated with either normal media or starvation media (eventually in the presence of 3-MA) for 4 h. The rate of long-lived protein degradation was calculated from the ratio of soluble radioactivity in the media to that insoluble in the acid-precipitable cell pellet.

[4] = system: MEFs, NSCs, HeLa, and COS-7 cells; assay: Release of lysosomal enzymes in the culture medium; format: cell-based; details: TFEB overexpression; acid phosphatase, beta-galactosidase, beta-hexosaminidase
Experimental: Lysosomal enzymes acid phosphatase, beta-galactosidase, and beta-hexosaminidaseactivities were measured using the appropriate fluorimetric or colorimetric substrates. SGSH activity was measured following protocols described in Fraldi et al., Hum Mol Gen 2007 (33).

LSDs = details: TFEB overexpression (45); cited from earlier work
[5] = system: HeLa cells stably expressing GFP-mRFP-LC3; assay: RFP-GFP tandem tagged LC3 autophagosome-lysosome fusion assay; format: cell-based, human; details: TFEB overexpressing cells compared to control cells
[6] = system: autophagy-related genes in HeLa cells; assay: qPCR of autophagy-related genes in TFEB stable overexpressing HeLa cells; format: cell-based, human; details: TFEB stable overexpression
Source text: as §1

B1: TFEB(S142A): TFEB variant with serine 142 mutated to alanine (protein, UniProt P19484 1-476, looked up, variant S142A)
Transcription factor EB: MASRIGLRMQLMREQAQQEEQRERMQQQAVMHYMQQQQQQQQQQLGGPPTPAINTPVHFQSPPPVPGEVLKVQSYLENPTSYHLQQSQHQKVREYLSETYGNKFAAHISPAQGSPKPPPAASPGVRAGHVLSSSAGNSAPNAPMAMLHIGSNPERELDDVIDNIMRLDDVLGYINPEMQMPNTLPLSSSHLNVYSSDPQVTASLVGVTSSSCPADLTQKRELTDAESRALAKERQKKDNHNLIERRRRFNINDRIKELGMLIPKANDLDVRWNKGTILKASVDYIRRMQKDLQKSRELENHSRRLEMTNKQLWLRIQELEMQARVHGLPTTSPSGMNMAELAQQVVKQELPSEEGPGEALMLGAEVPDPEPLPALPPQAPLPLPTQPPSPFHHLDFSHSLSFGGREDEGPPGYPEPLAPGHGSPFPSLSKKDLDLMLLDDSLLPLASDPLLSTMSPEASKASSRRSSFSMEEGDVL
modifications: 3xFlag tag
notes: TFEB variant with serine 142 mutated to alanine
HeLa cells [1]
  TFEB subcellular localization of serine-to-alanine mutants: constitutive nuclear localization
HeLa cells [1]; compared to TFEB(WT), TFEB(S332A) and TFEB(S402A)
  nuclear localization of mutant TFEB: significantly increased nuclear localization
TFEB target genes
  expression levels of TFEB target genes: increased expression levels
HeLa cells [2]; compared to wt TFEB
  induction of the autophagic/lysosomal system (autophagosomes, lysosomes, autophagolysosomes): stronger induction

B2: TFEB S142D: phospho-mimetic mutant of TFEB (protein, UniProt P19484 1-476, looked up, variant S142D)
Transcription factor EB: MASRIGLRMQLMREQAQQEEQRERMQQQAVMHYMQQQQQQQQQQLGGPPTPAINTPVHFQSPPPVPGEVLKVQSYLENPTSYHLQQSQHQKVREYLSETYGNKFAAHISPAQGSPKPPPAASPGVRAGHVLSSSAGNSAPNDPMAMLHIGSNPERELDDVIDNIMRLDDVLGYINPEMQMPNTLPLSSSHLNVYSSDPQVTASLVGVTSSSCPADLTQKRELTDAESRALAKERQKKDNHNLIERRRRFNINDRIKELGMLIPKANDLDVRWNKGTILKASVDYIRRMQKDLQKSRELENHSRRLEMTNKQLWLRIQELEMQARVHGLPTTSPSGMNMAELAQQVVKQELPSEEGPGEALMLGAEVPDPEPLPALPPQAPLPLPTQPPSPFHHLDFSHSLSFGGREDEGPPGYPEPLAPGHGSPFPSLSKKDLDLMLLDDSLLPLASDPLLSTMSPEASKASSRRSSFSMEEGDVL
modifications: 3xFlag tag
HeLa cells [1]; nutrient starvation
  translocation into the nucleus upon nutrient starvation: unable to translocate into the nucleus

B3: S211A: TFEB with serine-to-alanine mutation at position 211 (protein, UniProt P19484 1-476, looked up, variant S211A)
Transcription factor EB: MASRIGLRMQLMREQAQQEEQRERMQQQAVMHYMQQQQQQQQQQLGGPPTPAINTPVHFQSPPPVPGEVLKVQSYLENPTSYHLQQSQHQKVREYLSETYGNKFAAHISPAQGSPKPPPAASPGVRAGHVLSSSAGNSAPNSPMAMLHIGSNPERELDDVIDNIMRLDDVLGYINPEMQMPNTLPLSSSHLNVYSSDPQVTASLVGVTSSACPADLTQKRELTDAESRALAKERQKKDNHNLIERRRRFNINDRIKELGMLIPKANDLDVRWNKGTILKASVDYIRRMQKDLQKSRELENHSRRLEMTNKQLWLRIQELEMQARVHGLPTTSPSGMNMAELAQQVVKQELPSEEGPGEALMLGAEVPDPEPLPALPPQAPLPLPTQPPSPFHHLDFSHSLSFGGREDEGPPGYPEPLAPGHGSPFPSLSKKDLDLMLLDDSLLPLASDPLLSTMSPEASKASSRRSSFSMEEGDVL
HeLa cells [1]
  TFEB subcellular localization of serine-to-alanine mutants: constitutive nuclear localization

B4: TFEB: transcription factor EB, Seq. Id No. 2, overexpressed from plasmid, lentivirus or stable clone (protein, listed as Homo sapiens)
chain: MASRIGLRMQLMREQAQQEEQRERMQQQAVMHYMQQQQQQQQQQLGGPPTPAINTPVHFQSPPPVPGEVLKVQSYLENPTSYHLQQSQHQKVREYLSETYGNKFAAHISPAQGSPKPPPAASPGVRAGHVLSSSAGNSAPNSPMAMLHIGSNPERELDDVIDNIMRLDDVLGYINPEMQMPNTLPLSSSHLNVYSSDPQVTASLVGVTSSSCPADLTQKRELTDAESRALAKERQKKDNHNLIERRRRFNINDRIKELGMLIPKANDLDVRWNKGTILKASVDYIRRMQKDLQKSRELENHSRRLEMTNKQLWLRIQELEMQARVHGLPTTSPSGMNMAELAQQVVKQELPSEEGPGEALMLGAEVPDPEPLPALPPQAPLPLPTQPPSPFHHLDFSHSLSFGGREDEGPPGYPEPLAPGHGSPFPSLSKKDLDLMLLDDSLLPLASDPLLSTMSPEASKASSRRSSFSMEEGDVL
[3]
  number of autophagosomes by electron microscopy: An increase in the number of autophagosomes
long-lived proteins
  degradation of long-lived proteins: enhanced
[4]
  release of lysosomal enzymes in the culture medium: increases the release of lysosomal enzymes
LSDs
  substrate clearance and cellular vacuolization in LSDs: able to promote substrate clearance and to rescue cellular vacuolization
[5]
  number of autophagolysosomes: higher
[6]
  AKT1 FOLD INCREASE: 1.2 fold
  AMBRA1 FOLD INCREASE: 1.2 fold
  APP FOLD INCREASE: 1.4 fold
  ARSA FOLD INCREASE: 1.3 fold
  ATG3 FOLD INCREASE: 1.2 fold
  ATG4A FOLD INCREASE: 1.2 fold
  ATG4B FOLD INCREASE: 1.3 fold
  ATG4C FOLD INCREASE: 1.1 fold
  ATG4D FOLD INCREASE: 1.6 fold
  ATG5 FOLD INCREASE: 1.2 fold
  ATG7 FOLD INCREASE: 1.2 fold
  ATG9A FOLD INCREASE: 1.1 fold
  ATG9B FOLD INCREASE: 5.6 fold
  ATG10 FOLD INCREASE: 1.1 fold
  ATG12 FOLD INCREASE: 1.2 fold
  ATG16L1 FOLD INCREASE: −1.2 fold
  ATG16L2 FOLD INCREASE: 1.1 fold
  BAD FOLD INCREASE: 1.0 fold
  BAK1 FOLD INCREASE: 1.4 fold
  BAX FOLD INCREASE: 1.2 fold
  BCL2 FOLD INCREASE: 1.5 fold
  BECN1 FOLD INCREASE: 1.2 fold
  BID FOLD INCREASE: 1.2 fold
  BNIP3 FOLD INCREASE: 1.1 fold
  CLN3 FOLD INCREASE: 1.5 fold
  CXCR4 FOLD INCREASE: 1.3 fold
  DRAM FOLD INCREASE: 1.8 fold
  EIF2AK3 FOLD INCREASE: 1.4 fold
  EIF4G1 FOLD INCREASE: 1.3 fold
  FAM176A FOLD INCREASE: 1.6 fold
  GAA FOLD INCREASE: 1.3 fold
  GABARAP FOLD INCREASE: 1.1 fold
  GABARAPL1 FOLD INCREASE: 1.0 fold
  GABARAPL2 FOLD INCREASE: 1.1 fold
  HGS FOLD INCREASE: −1.1 fold
  HTT FOLD INCREASE: 1.0 fold
  MAP1LC3A FOLD INCREASE: 1.1 fold
  MAP1LC3B FOLD INCREASE: 1.2 fold
  PIK3C3 FOLD INCREASE: −1.2 fold
  PIK3R4 FOLD INCREASE: 1.1 fold
  PTEN FOLD INCREASE: 1.1 fold
  RAB24 FOLD INCREASE: 1.2 fold
  RGS19 FOLD INCREASE: 1.2 fold
  SNCA FOLD INCREASE: 1.6 fold
  SQSTM1 FOLD INCREASE: 2.4 fold
  TP53 FOLD INCREASE: 1.1 fold
  ULK1 FOLD INCREASE: 1.1 fold
  UVRAG FOLD INCREASE: 1.8 fold
  VPS11 FOLD INCREASE: 1.4 fold
  VPS18 FOLD INCREASE: 1.4 fold
  WIPI FOLD INCREASE: 2.5 fold
HeLa cells [2]; stable TFEB overexpression in HeLa cells
  number of autophagosomes (LC3 marker): increased significantly

— patent publication US9193755B1, “TFEB variants and uses thereof” (Fondazione Telethon, priority 2011, dated 2015)
